This note sets out measurements from US20240270821A1, “GIP/GLP1/GCG TRI-RECEPTOR AGONISTS AND USES THEREOF” (priority 2023, published 2024).

Common to all, as to experiment: cell-based or functional assay
One test deals with hGLP-1R (Homo sapiens, UniProt P43220).
The target in test [1] is T1, human GIP receptor (human) (UniProt P48546).
T1 sequence (looked up): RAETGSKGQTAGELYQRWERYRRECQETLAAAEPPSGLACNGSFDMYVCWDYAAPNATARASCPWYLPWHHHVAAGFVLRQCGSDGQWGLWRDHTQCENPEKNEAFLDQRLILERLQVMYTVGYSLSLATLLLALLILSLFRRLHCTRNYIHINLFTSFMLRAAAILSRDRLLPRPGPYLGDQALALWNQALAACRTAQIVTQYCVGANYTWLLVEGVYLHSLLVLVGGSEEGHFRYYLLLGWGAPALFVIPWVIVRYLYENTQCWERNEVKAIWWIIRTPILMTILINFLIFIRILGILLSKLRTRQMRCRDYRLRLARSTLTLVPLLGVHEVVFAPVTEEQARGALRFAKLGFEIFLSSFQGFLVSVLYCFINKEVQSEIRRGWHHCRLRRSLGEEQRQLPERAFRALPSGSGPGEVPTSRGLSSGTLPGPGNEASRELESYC

Test [2] concerns the target human glucagon receptor (human) (UniProt P47871).

Sequence of human glucagon receptor (human) (P47871 26-477): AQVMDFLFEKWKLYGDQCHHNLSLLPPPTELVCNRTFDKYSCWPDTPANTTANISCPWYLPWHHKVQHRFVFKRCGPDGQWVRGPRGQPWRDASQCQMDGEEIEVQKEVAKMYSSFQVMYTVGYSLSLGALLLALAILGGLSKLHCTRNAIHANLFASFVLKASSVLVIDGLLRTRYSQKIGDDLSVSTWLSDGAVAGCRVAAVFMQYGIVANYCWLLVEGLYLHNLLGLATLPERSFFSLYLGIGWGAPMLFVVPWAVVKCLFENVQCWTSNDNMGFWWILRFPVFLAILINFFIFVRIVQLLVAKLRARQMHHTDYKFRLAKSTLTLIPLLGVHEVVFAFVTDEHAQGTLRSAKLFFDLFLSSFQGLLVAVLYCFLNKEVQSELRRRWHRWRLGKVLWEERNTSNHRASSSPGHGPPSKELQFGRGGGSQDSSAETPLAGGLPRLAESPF
Sequence of hGLP-1R (P43220 24-463): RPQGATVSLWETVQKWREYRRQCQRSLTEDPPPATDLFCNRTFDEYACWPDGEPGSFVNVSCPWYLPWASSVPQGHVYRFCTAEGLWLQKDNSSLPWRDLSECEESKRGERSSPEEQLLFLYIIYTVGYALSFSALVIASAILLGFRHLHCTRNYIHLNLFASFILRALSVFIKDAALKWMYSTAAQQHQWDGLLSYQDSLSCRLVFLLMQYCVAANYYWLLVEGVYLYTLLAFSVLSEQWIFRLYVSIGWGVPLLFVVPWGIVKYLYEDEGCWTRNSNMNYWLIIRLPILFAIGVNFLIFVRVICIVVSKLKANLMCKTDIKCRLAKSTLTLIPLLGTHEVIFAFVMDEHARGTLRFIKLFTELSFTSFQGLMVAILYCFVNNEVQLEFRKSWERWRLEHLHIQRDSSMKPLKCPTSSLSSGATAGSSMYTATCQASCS

B1: Example 799 (peptide)
chain: YXQGTFTSDFSXXLDKKAQXAFIEYLIEXGPSSGAPPPSGS
modifications: synthetic construct; SITE 2: note = 2-Aminoisobutyric Acid; SITE 12: note = (S)-2,4-diaminobutanoic acid; SITE 13: note = alpha-methyl-leucine; SITE 17: note = Lysine is chemically modified through conjugation of the epsilon-amino group of the Lysine side chain with (2-[2-(2-Amino-ethoxy)-ethoxy]-ac)
As for B1, the Relative cAMP EC50 in the test with hGLP-1R was found to be 0.462 nM; in test [1], 0.0668 nM; in test [2], 1.64 nM. Further, the cAMP Rel EC50 (1% HSA) with hGLP-1R was found to be 179 nM; in test [1], 18.4 nM; in test [2] it was 574 nM.

B2: Example 782 (peptide)
chain: YXQGTFTSDFSQXLDKKAQXAFIEYLLEXGPSSGAPPPSGX
modifications: synthetic construct; SITE 2: note = 2-Aminoisobutyric Acid; SITE 13: note = alpha-methyl-leucine; SITE 17: note = Lysine is chemically modified through conjugation of the epsilon-amino group of the Lysine side chain with (2-[2-(2-Amino-ethoxy)-ethoxy]-acetyl)-(gamma-Glu)-CO-(CH2) 16-CO2H; SITE 20: n
On to B2, for which the Relative cAMP EC50 with hGLP-1R amounted to 1.94 nM; in test [1], 0.0711 nM; in test [2] it was 4.96 nM. The results for the cAMP Rel EC50, nM (1% HSA) (in the test with hGLP-1R; in test [1]; in test [2]) were 354 nM, 15.5 nM and 1380 nM, respectively.

B3: Example 797 (peptide)
chain: YXQGTFTSDFSKXLDKKAQXAFIEYLIEXGPSSGAPPPSGS
modifications: synthetic construct; SITE 2: note = 2-Aminoisobutyric Acid; SITE 13: note = alpha-methyl-leucine; SITE 17: note = Lysine is chemically modified through conjugation of the epsilon-amino group of the Lysine side chain with (2-[2-(2-Amino-ethoxy)-ethoxy]-acetyl)-(gamma-Glu)-CO-(CH2) 16-CO2H; SITE 20: n
As to B3, the results for the Relative cAMP EC50 (in the test with hGLP-1R; in test [1]; in test [2]) were 0.449 nM, 0.0781 nM and 3.78 nM, respectively. The cAMP Rel EC50 (1% HSA) with hGLP-1R came out at 102 nM; in test [1], 16.7 nM; in test [2], 963 nM.

B4: Example 780 (peptide)
chain: YXQGTFTSDFSQXLDKKAQXAFIEYLLEAGPSSXAPPPSGT
modifications: no C-terminal amide; synthetic construct; SITE 2: note = 2-Aminoisobutyric Acid; SITE 13: note = alpha-methyl-leucine; SITE 17: note = Lysine is chemically modified through conjugation of the epsilon-amino group of the Lysine side chain with (2-[2-(2-Amino-ethoxy)-ethoxy]-acetyl)-(gamma-Glu)-CO-(CH2) 16-CO2H; SITE 20: n
As for B4, the Relative cAMP EC50 with hGLP-1R was determined as 1.26 nM; in test [1], 0.111 nM; in test [2] it was 4.84 nM. For the same molecule, the cAMP Rel EC50, nM (1% HSA) with hGLP-1R was determined as 211 nM; in test [1], 22.1 nM; in test [2], 1250 nM.

B5: Example 796 (peptide)
chain: YXQGTFTSDFSXXLDKKAQXAFIEYLIEXGPSSGAPPPSGS
modifications: synthetic construct; SITE 2: note = 2-Aminoisobutyric Acid; SITE 12: note = L-ornithine; SITE 13: note = alpha-methyl-leucine; SITE 17: note = Lysine is chemically modified through conjugation of the epsilon-amino group of the Lysine side chain with (2-[2-(2-Amino-ethoxy)-ethoxy]-acetyl)-(gamma-Glu)
For B5, the Relative cAMP EC50 in the test with hGLP-1R was determined as 0.602 nM; in test [1], 0.098 nM; in test [2], 5.3 nM. The cAMP Rel EC50, nM (1% HSA) with hGLP-1R was 125 nM; in test [1], 17.5 nM; in test [2], 1000 nM.

B6: Example 784 (peptide)
chain: YXQGTFTSDFSQXLDKKAQXAFIEYLLEXGPSSGAPPPSGS
modifications: synthetic construct; SITE 2: note = 2-Aminoisobutyric Acid; SITE 13: note = alpha-methyl-leucine; SITE 17: note = Lysine is chemically modified through conjugation of the epsilon-amino group of the Lysine side chain with (gamma-Glu)2-CO-(CH2)16-CO2H; SITE 20: note = 2-Aminoisobutyric Acid; SITE 29:
For B6, the results for the Relative cAMP EC50 (with hGLP-1R; in test [1]; in test [2]) were 2.09 nM, 0.0587 nM and 5.21 nM, respectively. For the same molecule, the cAMP Rel EC50, nM (1% HSA) in the test with hGLP-1R turned out to be 284 nM; in test [1], 11.8 nM; in test [2], 711 nM.

B7: Example 771 (peptide)
chain: YXQGTFTSDFSXXLDKKAQXAFIEYLLEGGPSSGXPPPGGS
modifications: not fully specified; synthetic construct; SITE 2: note = 2-Aminoisobutyric Acid; SITE 12: note = L-ornithine; SITE 13: note = alpha-methyl-leucine; SITE 17: note = Lysine is chemically modified through conjugation of the epsilon-amino group of the Lysine side chain with (gamma-Glu)2-CO-(CH2)16-CO2H; SITE 20: note = 2-Am
As for B7, the figures for the Relative cAMP EC50 (with hGLP-1R; in test [1]; in test [2]) were 4.38 nM, 0.232 nM and 5.05 nM, respectively. Further, the cAMP Rel EC50, nM (1% HSA) with hGLP-1R turned out to be 665 nM; in test [1], 44.2 nM; in test [2], 955 nM.

B8: Example 772 (peptide)
chain: YXQGTFTSDFSQXLDKKAQXAFIEYLLAGGPSSGAPPPEGS
modifications: synthetic construct; SITE 2: note = 2-Aminoisobutyric Acid; SITE 13: note = alpha-methyl-leucine; SITE 17: note = Lysine is chemically modified through conjugation of the epsilon-amino group of the Lysine side chain with (2-[2-(2-Amino-ethoxy)-ethoxy]-acetyl)-(gamma-Glu)-CO-(CH2) 16-CO2H; SITE 20: n
In the case of B8, the Relative cAMP EC50 with hGLP-1R was determined as 1.38 nM; in test [1], 0.115 nM; in test [2] it was 15.9 nM. In addition, the cAMP Rel EC50, nM (1% HSA) came out at 206 nM with hGLP-1R, 21.6 nM in test [1] and 1880 nM in test [2].

B9: Example 787 (peptide)
chain: YXQGTFTSDFSQXLDKKAQXAFIEYLLEXGESSGAPPPSGS
modifications: synthetic construct; SITE 2: note = 2-Aminoisobutyric Acid; SITE 13: note = alpha-methyl-leucine; SITE 17: note = Lysine is chemically modified through conjugation of the epsilon-amino group of the Lysine side chain with (2-[2-(2-Amino-ethoxy)-ethoxy]-acetyl)2-(gamma-Glu)-CO-(CH2 )16-CO2H; SITE 20:
As to B9, the values for the Relative cAMP EC50 (with hGLP-1R; in test [1]; in test [2]) were 2.55 nM, 0.0675 nM and 7.81 nM, respectively. Moreover, the cAMP Rel EC50, nM (1% HSA) with hGLP-1R is 382 nM; in test [1], 18.6 nM; in test [2], 2060 nM.

B10: Example 775 (peptide)
chain: YXQGTFTSDFSQXLDKKAQXAFIEYLLEAGPSSGAPPPSGS
modifications: synthetic construct; SITE 2: note = 2-Aminoisobutyric Acid; SITE 13: note = alpha-methyl-leucine; SITE 17: note = Lysine is chemically modified through conjugation of the epsilon-amino group of the Lysine side chain with (2-[2-(2-Amino-ethoxy)-ethoxy]-acetyl)-(gamma-Glu)-CO-(CH2) 16-CO2H; SITE 20: n
Regarding B10, the Relative cAMP EC50 with hGLP-1R is 0.993 nM; in test [1], 0.105 nM; in test [2], 4.36 nM. Moreover, the cAMP Rel EC50, nM (1% HSA) with hGLP-1R was found to be 202 nM; in test [1], 25.8 nM; in test [2], 724 nM.

B11: Example 794 (peptide)
chain: YXQGTFTSDFSRXLDKKAQXAFIEYLIEGGESSGAPPPSGS
modifications: synthetic construct; SITE 2: note = 2-Aminoisobutyric Acid; SITE 13: note = alpha-methyl-leucine; SITE 17: note = Lysine is chemically modified through conjugation of the epsilon-amino group of the Lysine side chain with (2-[2-(2-Amino-ethoxy)-ethoxy]-acetyl)-(gamma-Glu)-CO-(CH2) 16-CO2H; SITE 20: n
In the case of B11, the results for the Relative cAMP EC50 (with hGLP-1R; in test [1]; in test [2]) were 1.26 nM, 0.468 nM and 1.21 nM, respectively. The cAMP Rel EC50, nM (1% HSA) with hGLP-1R worked out at 233 nM; in test [1] it was 68.4 nM; in test [2], 297 nM.
